Data from paper doi:10.1101/2020.09.15.299115.
Blank lines part the entries; values can stand above or below the molecule they belong to.

Columns and labels:
[1] = molecular target: mCherry-FKBP-Ubc9 (UniProt P63279)
[2] = molecular target: mCherry-FKBP-Ubc9 (UniProt P63279); assay: partitioning into condensates

KM of SUMOylation of RanGAP* (no scaffolds) [1]: 70 µM
Molecule: FKBP-EGFP-RanGAP* (RanGAP C-terminal domain 398-587, F562A) (from UniProt P46060 398-587) (domain or fragment)

fold concentration in droplets [2]: 1.9 fold
B1: E1-EGFP (SAE1/2 heterodimer) (complex)
chain 1: MVEKEEAGGGISEEEAAQYDRQIRLWGLEAQKRLRASRVLLVGLKGLGAEIAKNLILAGVKGLTMLDHEQVTPEDPGAQFLIRTGSVGRNRAEASLERAQNLNPMVDVKVDTEDIEKKPESFFTQFDAVCLTCCSRDVIVKVDQICHKNSIKFFTGDVFGYHGYTFANLGEHEFVEEKTKVAKVSQGVEDGPDTKRAKLDSSETTMVKKKVVFCPVKEALEVDWSSEKAKAALKRTTSDYFLLQVLLKFRTDKGRDPSSDTYEEDSELLLQIRNDVLDSLGISPDLLPEDFVRYCFSEMAPVCAVVGGILAQEIVKALSQRDPPHNNFFFFDGMKGNGIVECLGPK
chain 2: MALSRGLPRELAEAVAGGRVLVVGAGGIGCELLKNLVLTGFSHIDLIDLDTIDVSNLNRQFLFQKKHVGRSKAQVAKESVLQFYPKANIVAYHDSIMNPDYNVEFFRQFILVMNALDNRAARNHVNRMCLAADVPLIESGTAGYLGQVTTIKKGVTECYECHPKPTQRTFPGCTIRNTPSEPIHCIVWAKYLFNQLFGEEDADQEVSPDRADPEAAWEPTEAEARARASNEDGDIKRISTKEWAKSTGYDPVKLFTKLFKDDIRYLLTMDKLWRKRKPPVPLDWAEVQSQGEETNASDQQNEPQLGLKDQQVLDVKSYARLFSKSIETLRVHLAEKGDGAELIWDKDDPSAMDFVTSAANLRMHIFSMNMKSRFDIKSMAGNIIPAIATTNAVIAGLIVLEGLKILSGKIDQCRTIFLNKQPNPRKKLLVPCALDPPNPNCYVCASKPEVTVRLNVHKVTVLTLQDKIVKEKFAMVAPDVQIEDGKGTILISSEEGETEANNHKKLSEFGIRNGSRLQADDFLQDYTLLINILHSEDLGKDVEFEVVGDAPEKVGPKQAEDAAKSITNGSDDGAQPSTSTAQEQDDVLIVDSDEEDSSNNADVSEEERSRKRKLDEKENLSAKRSRIEQKEELDDVIALD
